Measured values reported in article PMC10792220 (Journal of Applied Glycoscience, 2023).

What was measured:
[1] = biological target: Aspergillus oryzae α-xylosidase AxyC, His6-tagged (Aspergillus oryzae); assay: SEC
[2] = biological target: T1, AxyC (Aspergillus oryzae, UniProt A0ABQ6KV83); assay: absorbance of released p-nitrophenol at […] nm; assay type: biochemical; details: read-out: Relative activity (%) at 40 mM
T1 sequence (A0ABQ6KV83 1-654): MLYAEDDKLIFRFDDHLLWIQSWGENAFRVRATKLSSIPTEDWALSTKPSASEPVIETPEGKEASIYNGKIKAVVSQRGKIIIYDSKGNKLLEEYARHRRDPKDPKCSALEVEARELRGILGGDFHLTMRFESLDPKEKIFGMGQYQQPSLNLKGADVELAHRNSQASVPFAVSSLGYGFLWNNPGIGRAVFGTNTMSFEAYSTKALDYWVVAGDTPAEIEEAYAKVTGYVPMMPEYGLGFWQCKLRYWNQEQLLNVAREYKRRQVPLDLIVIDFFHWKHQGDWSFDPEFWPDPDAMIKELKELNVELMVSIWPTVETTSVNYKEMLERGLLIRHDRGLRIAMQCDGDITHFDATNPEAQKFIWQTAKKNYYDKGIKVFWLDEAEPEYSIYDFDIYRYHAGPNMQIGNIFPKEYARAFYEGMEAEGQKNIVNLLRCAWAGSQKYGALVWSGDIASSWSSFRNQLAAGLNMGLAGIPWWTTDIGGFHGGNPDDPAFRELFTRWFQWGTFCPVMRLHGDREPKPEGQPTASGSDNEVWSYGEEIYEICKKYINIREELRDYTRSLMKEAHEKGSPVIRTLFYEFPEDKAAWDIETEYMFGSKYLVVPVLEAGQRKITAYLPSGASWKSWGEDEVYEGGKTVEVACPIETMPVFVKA

activity at 40000 µM [2] [%] | Molecule | stoichiometry N [1]
 | Aspergillus oryzae α-xylosidase AxyC, His6-tagged (enzyme) | 4
84.8 ± 4.5 | OC1OC[C@@H](O)[C@H](O)[C@H]1O (stereo partly drawn) [D-xylose] | 
